Assay results reported in patent US20150344570A1 (published 2015).

T1: FcγRIIa R (human, UniProt P12318 34-217)
T1 construct: extracellular domain; also called FcgRIIa R type; 2aR
T1 sequence (looked up): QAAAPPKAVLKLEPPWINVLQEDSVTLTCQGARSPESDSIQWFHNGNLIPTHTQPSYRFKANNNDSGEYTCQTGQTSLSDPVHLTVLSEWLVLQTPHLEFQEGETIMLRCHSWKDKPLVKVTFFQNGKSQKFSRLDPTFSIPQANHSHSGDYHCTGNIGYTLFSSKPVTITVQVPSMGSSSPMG


Target: T1, FcγRIIa R
Assay: SPR (Biacore), captured antibody, FcγR as analyte; relative binding activity
Description: Analysis of interaction between objective antibody and the FcγR was carried out using Biacore T100 (GE Healthcare). HBS-EP+ (GE Healthcare) was used as the running buffer, and the measurement temperature was set to 25° C. Chips produced by immobilizing the antigen peptide by the amine coupling method to a Series S Sencor Chip CM5 (GE Healthcare), or alternatively, chips produced by allowing preliminarily biotinylated antigen peptides to interact with and immobilize onto a Series S Sensor Chip SA (certified) (GE Healthcare) were used. Antibodies of interest were captured onto an antigen peptide-immobilized chip, and allowed to interact to each FcγR diluted with running buffer. To regenerate and repeatedly use the chip, the antibodies captured on the chip were washed off by reacting 10 mM glycine-HCl, pH 1.5.

| Binder | Ho/Con_2aR |
| --- | --- |
| GpH7-B3 variant N325_01G/GpL16-k0 (antibody, human IgG1, kappa, also called Ho Ab N325_01G) heavy: not shown light: DIVMTQSPLSLPVTPGEPASISCQASESLVHSNRNTYLHWYLQKPGQSPQLLIYKVSNRFSGVPDRFSGSGSGTDFTLKISRVEAEDVGVYYCSQNTHVPPTFGQGTKVEIERTVAAPSVFIFPPSDEQLKSGTASVVCLLNNFYPREAKVQWKVDNALQSGNSQESVTEQDSKDSTYSLSSTLTLSKADYEKHKVYACEVTHQGLSSPVTKSFNRGEC | 26.7 % (GpH7-B3/GpL16-k0 = 100) |
| GpH7-B3 variant A327_10E/GpL16-k0 (antibody, human IgG1, kappa, also called Ho Ab A327_10E) heavy: not shown light: DIVMTQSPLSLPVTPGEPASISCQASESLVHSNRNTYLHWYLQKPGQSPQLLIYKVSNRFSGVPDRFSGSGSGTDFTLKISRVEAEDVGVYYCSQNTHVPPTFGQGTKVEIERTVAAPSVFIFPPSDEQLKSGTASVVCLLNNFYPREAKVQWKVDNALQSGNSQESVTEQDSKDSTYSLSSTLTLSKADYEKHKVYACEVTHQGLSSPVTKSFNRGEC | 104 % (GpH7-B3/GpL16-k0 = 100) |
| GpH7-B3 variant E269_09D/GpL16-k0 (antibody, human IgG1, kappa, also called Ho Ab E269_09D) heavy: not shown light: DIVMTQSPLSLPVTPGEPASISCQASESLVHSNRNTYLHWYLQKPGQSPQLLIYKVSNRFSGVPDRFSGSGSGTDFTLKISRVEAEDVGVYYCSQNTHVPPTFGQGTKVEIERTVAAPSVFIFPPSDEQLKSGTASVVCLLNNFYPREAKVQWKVDNALQSGNSQESVTEQDSKDSTYSLSSTLTLSKADYEKHKVYACEVTHQGLSSPVTKSFNRGEC | 103 % (GpH7-B3/GpL16-k0 = 100) |
| GpH7-B3 variant E333_08L/GpL16-k0 (antibody, human IgG1, kappa, also called Ho Ab E333_08L) heavy: not shown light: DIVMTQSPLSLPVTPGEPASISCQASESLVHSNRNTYLHWYLQKPGQSPQLLIYKVSNRFSGVPDRFSGSGSGTDFTLKISRVEAEDVGVYYCSQNTHVPPTFGQGTKVEIERTVAAPSVFIFPPSDEQLKSGTASVVCLLNNFYPREAKVQWKVDNALQSGNSQESVTEQDSKDSTYSLSSTLTLSKADYEKHKVYACEVTHQGLSSPVTKSFNRGEC | 97.1 % (GpH7-B3/GpL16-k0 = 100) |
| GpH7-B3 variant A330_15Y/GpL16-k0 (antibody, human IgG1, kappa, also called Ho Ab A330_15Y) heavy: not shown light: DIVMTQSPLSLPVTPGEPASISCQASESLVHSNRNTYLHWYLQKPGQSPQLLIYKVSNRFSGVPDRFSGSGSGTDFTLKISRVEAEDVGVYYCSQNTHVPPTFGQGTKVEIERTVAAPSVFIFPPSDEQLKSGTASVVCLLNNFYPREAKVQWKVDNALQSGNSQESVTEQDSKDSTYSLSSTLTLSKADYEKHKVYACEVTHQGLSSPVTKSFNRGEC | 87.5 % (GpH7-B3/GpL16-k0 = 100) |
| GpH7-B3 variant G237_06M/GpL16-k0 (antibody, human IgG1, kappa, also called Ho Ab G237_06M) heavy: not shown light: DIVMTQSPLSLPVTPGEPASISCQASESLVHSNRNTYLHWYLQKPGQSPQLLIYKVSNRFSGVPDRFSGSGSGTDFTLKISRVEAEDVGVYYCSQNTHVPPTFGQGTKVEIERTVAAPSVFIFPPSDEQLKSGTASVVCLLNNFYPREAKVQWKVDNALQSGNSQESVTEQDSKDSTYSLSSTLTLSKADYEKHKVYACEVTHQGLSSPVTKSFNRGEC | 55.3 % (GpH7-B3/GpL16-k0 = 100) |
| GpH7-B3 variant G237_04F/GpL16-k0 (antibody, human IgG1, kappa, also called Ho Ab G237_04F) heavy: not shown light: DIVMTQSPLSLPVTPGEPASISCQASESLVHSNRNTYLHWYLQKPGQSPQLLIYKVSNRFSGVPDRFSGSGSGTDFTLKISRVEAEDVGVYYCSQNTHVPPTFGQGTKVEIERTVAAPSVFIFPPSDEQLKSGTASVVCLLNNFYPREAKVQWKVDNALQSGNSQESVTEQDSKDSTYSLSSTLTLSKADYEKHKVYACEVTHQGLSSPVTKSFNRGEC | 113 % (GpH7-B3/GpL16-k0 = 100) |
| GpH7-B3 variant E333_04F/GpL16-k0 (antibody, human IgG1, kappa, also called Ho Ab E333_04F) heavy: not shown light: DIVMTQSPLSLPVTPGEPASISCQASESLVHSNRNTYLHWYLQKPGQSPQLLIYKVSNRFSGVPDRFSGSGSGTDFTLKISRVEAEDVGVYYCSQNTHVPPTFGQGTKVEIERTVAAPSVFIFPPSDEQLKSGTASVVCLLNNFYPREAKVQWKVDNALQSGNSQESVTEQDSKDSTYSLSSTLTLSKADYEKHKVYACEVTHQGLSSPVTKSFNRGEC | 92.4 % (GpH7-B3/GpL16-k0 = 100) |
| GpH7-B3 variant G237_02A/GpL16-k0 (antibody, human IgG1, kappa, also called Ho Ab G237_02A) heavy: not shown light: DIVMTQSPLSLPVTPGEPASISCQASESLVHSNRNTYLHWYLQKPGQSPQLLIYKVSNRFSGVPDRFSGSGSGTDFTLKISRVEAEDVGVYYCSQNTHVPPTFGQGTKVEIERTVAAPSVFIFPPSDEQLKSGTASVVCLLNNFYPREAKVQWKVDNALQSGNSQESVTEQDSKDSTYSLSSTLTLSKADYEKHKVYACEVTHQGLSSPVTKSFNRGEC | 84 % (GpH7-B3/GpL16-k0 = 100) |
| GpH7-B3 variant A330_01G/GpL16-k0 (antibody, human IgG1, kappa, also called Ho Ab A330_01G) heavy: not shown light: DIVMTQSPLSLPVTPGEPASISCQASESLVHSNRNTYLHWYLQKPGQSPQLLIYKVSNRFSGVPDRFSGSGSGTDFTLKISRVEAEDVGVYYCSQNTHVPPTFGQGTKVEIERTVAAPSVFIFPPSDEQLKSGTASVVCLLNNFYPREAKVQWKVDNALQSGNSQESVTEQDSKDSTYSLSSTLTLSKADYEKHKVYACEVTHQGLSSPVTKSFNRGEC | 106 % (GpH7-B3/GpL16-k0 = 100) |
| GpH7-B3 variant A330_05P/GpL16-k0 (antibody, human IgG1, kappa, also called Ho Ab A330_05P) heavy: not shown light: DIVMTQSPLSLPVTPGEPASISCQASESLVHSNRNTYLHWYLQKPGQSPQLLIYKVSNRFSGVPDRFSGSGSGTDFTLKISRVEAEDVGVYYCSQNTHVPPTFGQGTKVEIERTVAAPSVFIFPPSDEQLKSGTASVVCLLNNFYPREAKVQWKVDNALQSGNSQESVTEQDSKDSTYSLSSTLTLSKADYEKHKVYACEVTHQGLSSPVTKSFNRGEC | 36.2 % (GpH7-B3/GpL16-k0 = 100) |
| GpH7-B3 variant G237_08L/GpL16-k0 (antibody, human IgG1, kappa, also called Ho Ab G237_08L) heavy: not shown light: DIVMTQSPLSLPVTPGEPASISCQASESLVHSNRNTYLHWYLQKPGQSPQLLIYKVSNRFSGVPDRFSGSGSGTDFTLKISRVEAEDVGVYYCSQNTHVPPTFGQGTKVEIERTVAAPSVFIFPPSDEQLKSGTASVVCLLNNFYPREAKVQWKVDNALQSGNSQESVTEQDSKDSTYSLSSTLTLSKADYEKHKVYACEVTHQGLSSPVTKSFNRGEC | 56.6 % (GpH7-B3/GpL16-k0 = 100) |
| GpH7-B3 variant E333_09D/GpL16-k0 (antibody, human IgG1, kappa, also called Ho Ab E333_09D) heavy: not shown light: DIVMTQSPLSLPVTPGEPASISCQASESLVHSNRNTYLHWYLQKPGQSPQLLIYKVSNRFSGVPDRFSGSGSGTDFTLKISRVEAEDVGVYYCSQNTHVPPTFGQGTKVEIERTVAAPSVFIFPPSDEQLKSGTASVVCLLNNFYPREAKVQWKVDNALQSGNSQESVTEQDSKDSTYSLSSTLTLSKADYEKHKVYACEVTHQGLSSPVTKSFNRGEC | 96.5 % (GpH7-B3/GpL16-k0 = 100) |
| GpH7-B3 variant A330_11K/GpL16-k0 (antibody, human IgG1, kappa, also called Ho Ab A330_11K) heavy: not shown light: DIVMTQSPLSLPVTPGEPASISCQASESLVHSNRNTYLHWYLQKPGQSPQLLIYKVSNRFSGVPDRFSGSGSGTDFTLKISRVEAEDVGVYYCSQNTHVPPTFGQGTKVEIERTVAAPSVFIFPPSDEQLKSGTASVVCLLNNFYPREAKVQWKVDNALQSGNSQESVTEQDSKDSTYSLSSTLTLSKADYEKHKVYACEVTHQGLSSPVTKSFNRGEC | 106 % (GpH7-B3/GpL16-k0 = 100) |
| GpH7-B3 variant A330_19Q/GpL16-k0 (antibody, human IgG1, kappa, also called Ho Ab A330_19Q) heavy: not shown light: DIVMTQSPLSLPVTPGEPASISCQASESLVHSNRNTYLHWYLQKPGQSPQLLIYKVSNRFSGVPDRFSGSGSGTDFTLKISRVEAEDVGVYYCSQNTHVPPTFGQGTKVEIERTVAAPSVFIFPPSDEQLKSGTASVVCLLNNFYPREAKVQWKVDNALQSGNSQESVTEQDSKDSTYSLSSTLTLSKADYEKHKVYACEVTHQGLSSPVTKSFNRGEC | 99.1 % (GpH7-B3/GpL16-k0 = 100) |
| GpH7-B3 variant E333_15Y/GpL16-k0 (antibody, human IgG1, kappa, also called Ho Ab E333_15Y) heavy: not shown light: DIVMTQSPLSLPVTPGEPASISCQASESLVHSNRNTYLHWYLQKPGQSPQLLIYKVSNRFSGVPDRFSGSGSGTDFTLKISRVEAEDVGVYYCSQNTHVPPTFGQGTKVEIERTVAAPSVFIFPPSDEQLKSGTASVVCLLNNFYPREAKVQWKVDNALQSGNSQESVTEQDSKDSTYSLSSTLTLSKADYEKHKVYACEVTHQGLSSPVTKSFNRGEC | 96.2 % (GpH7-B3/GpL16-k0 = 100) |
| GpH7-B3 variant E333_05P/GpL16-k0 (antibody, human IgG1, kappa, also called Ho Ab E333_05P) heavy: not shown light: DIVMTQSPLSLPVTPGEPASISCQASESLVHSNRNTYLHWYLQKPGQSPQLLIYKVSNRFSGVPDRFSGSGSGTDFTLKISRVEAEDVGVYYCSQNTHVPPTFGQGTKVEIERTVAAPSVFIFPPSDEQLKSGTASVVCLLNNFYPREAKVQWKVDNALQSGNSQESVTEQDSKDSTYSLSSTLTLSKADYEKHKVYACEVTHQGLSSPVTKSFNRGEC | 99.9 % (GpH7-B3/GpL16-k0 = 100) |
| GpH7-B3 variant A330_12R/GpL16-k0 (antibody, human IgG1, kappa, also called Ho Ab A330_12R) heavy: not shown light: DIVMTQSPLSLPVTPGEPASISCQASESLVHSNRNTYLHWYLQKPGQSPQLLIYKVSNRFSGVPDRFSGSGSGTDFTLKISRVEAEDVGVYYCSQNTHVPPTFGQGTKVEIERTVAAPSVFIFPPSDEQLKSGTASVVCLLNNFYPREAKVQWKVDNALQSGNSQESVTEQDSKDSTYSLSSTLTLSKADYEKHKVYACEVTHQGLSSPVTKSFNRGEC | 101 % (GpH7-B3/GpL16-k0 = 100) |
| GpH7-B3 variant A327_09D/GpL16-k0 (antibody, human IgG1, kappa, also called Ho Ab A327_09D) heavy: not shown light: DIVMTQSPLSLPVTPGEPASISCQASESLVHSNRNTYLHWYLQKPGQSPQLLIYKVSNRFSGVPDRFSGSGSGTDFTLKISRVEAEDVGVYYCSQNTHVPPTFGQGTKVEIERTVAAPSVFIFPPSDEQLKSGTASVVCLLNNFYPREAKVQWKVDNALQSGNSQESVTEQDSKDSTYSLSSTLTLSKADYEKHKVYACEVTHQGLSSPVTKSFNRGEC | 120 % (GpH7-B3/GpL16-k0 = 100) |
| GpH7-B3 variant E333_07I/GpL16-k0 (antibody, human IgG1, kappa, also called Ho Ab E333_07I) heavy: not shown light: DIVMTQSPLSLPVTPGEPASISCQASESLVHSNRNTYLHWYLQKPGQSPQLLIYKVSNRFSGVPDRFSGSGSGTDFTLKISRVEAEDVGVYYCSQNTHVPPTFGQGTKVEIERTVAAPSVFIFPPSDEQLKSGTASVVCLLNNFYPREAKVQWKVDNALQSGNSQESVTEQDSKDSTYSLSSTLTLSKADYEKHKVYACEVTHQGLSSPVTKSFNRGEC | 98.3 % (GpH7-B3/GpL16-k0 = 100) |
| GpH7-B3 variant G236_14T/GpL16-k0 (antibody, human IgG1, kappa, also called Ho Ab G236_14T) heavy: not shown light: DIVMTQSPLSLPVTPGEPASISCQASESLVHSNRNTYLHWYLQKPGQSPQLLIYKVSNRFSGVPDRFSGSGSGTDFTLKISRVEAEDVGVYYCSQNTHVPPTFGQGTKVEIERTVAAPSVFIFPPSDEQLKSGTASVVCLLNNFYPREAKVQWKVDNALQSGNSQESVTEQDSKDSTYSLSSTLTLSKADYEKHKVYACEVTHQGLSSPVTKSFNRGEC | 80 % (GpH7-B3/GpL16-k0 = 100) |
